According to patent US20090215195A1:

Target: Human complement component C5 (human) (UniProt P01031)
Assay: cell-based or functional assay

## Recombinant SET1 (SSL7), allele from Staphylococcus aureus clinical isolate GL1
  SET1 concentration at maximum survival of E. coli in human serum: 2.1 nM
  surviving E. coli cells in human serum, maximum level: 14%
